Laboratory results published in patent US20240101959A1, “USE OF IL-2R-BETA-GAMMA AGONIST PEPTIDES IN CELL MANUFACTURING” (MEDIKINE, INC., priority 2022, published 2024).
Where two headings read alike, the source gives them in different places. Non-standard residues stand in square brackets, D forms with d. No end group written: not given here. Alb = not defined here

T1: hu-IL-2Rγc subunit (human), P31785
T1 chain: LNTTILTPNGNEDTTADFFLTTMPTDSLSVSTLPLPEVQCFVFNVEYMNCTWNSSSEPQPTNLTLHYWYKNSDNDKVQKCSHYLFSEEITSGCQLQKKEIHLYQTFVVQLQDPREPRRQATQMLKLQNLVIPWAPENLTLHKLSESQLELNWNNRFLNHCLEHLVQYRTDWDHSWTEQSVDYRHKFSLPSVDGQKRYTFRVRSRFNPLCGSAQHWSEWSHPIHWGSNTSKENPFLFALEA

T2: hu-IL-2Rγc subunit (human, UniProt P31785 23-262, limits assumed)
T2 construct: also called human interleukin-2 receptor subunit γ; CD132
T2 sequence (looked up): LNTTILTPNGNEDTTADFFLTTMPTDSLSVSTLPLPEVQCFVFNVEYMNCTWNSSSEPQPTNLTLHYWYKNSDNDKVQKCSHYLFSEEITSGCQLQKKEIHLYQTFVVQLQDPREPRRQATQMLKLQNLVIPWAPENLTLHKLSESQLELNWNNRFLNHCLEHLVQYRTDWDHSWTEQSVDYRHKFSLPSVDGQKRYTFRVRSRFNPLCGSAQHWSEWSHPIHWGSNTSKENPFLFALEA


What was measured:
[1] = target: T1, hu-IL-2Rγc subunit (human), P31785; assay: phage ELISA competition assay
[2] = target: T1, hu-IL-2Rγc subunit (human), P31785
hu-IL-2Rγc subunit [3] = target: T2, hu-IL-2Rγc subunit; assay: phage ELISA competition assay
hu-IL-2Rγc subunit [4] = target: T2, hu-IL-2Rγc subunit

Row | Binder | IC50 [1] [µM] | IC50 [2] [µM] | IC50 (hu-IL-2Rγc subunit [3]) [µM] | IC50 (hu-IL-2Rγc subunit [4]) [µM]
1 | KLTVECQDWDGVELCWVGVE [SEQ ID NO 684] |  |  | < 10 | < 100
2 | EGSTTTIECEEWAGVELCWL [SEQ ID NO 664] |  |  | < 10 | < 100
3 | IECEEWAGVELCWL [SEQ ID NO 667] |  |  | < 10 | < 100
4 | YSRELYVQCEDWEGVELCWI [SEQ ID NO 651] |  |  | < 10 | < 100
5 | RSDDEVVVCQEWEGVELCWQ [SEQ ID NO 666] |  |  | < 10 | < 100
6 | FAHHGVVECQEWYGVELCWQ [SEQ ID NO 670] |  |  | < 10 | < 100
7 | IECDTSYGVYICWQ [SEQ ID NO 637] |  |  | < 10 | < 100
8 | VVCQEWEGVELCWVEPPLLP [SEQ ID NO 686] |  |  | < 10 | < 100
9 | RLLNSVVECLDWEGVELCWQ [SEQ ID NO 659] |  |  | < 10 | < 100
10 | VVCQEWEGVELCWYAGECMQ [SEQ ID NO 674] |  |  | < 10 | < 100
11 | KTTVACQDWGGVELCWVERV [SEQ ID NO 689] |  |  | < 10 | < 100
12 | ILCQEFEGVELCWLEESLAE [SEQ ID NO 675] |  |  | < 10 | < 100
13 | RSNQTVVECQDWEGVELCWQ [SEQ ID NO 673] |  |  | < 10 | < 100
14 | LALRKEVVCQEYYGVELCWI [SEQ ID NO 641] |  |  | < 10 | < 100
15 | MVNREVVVCEDWYGVELCWQ [SEQ ID NO 643] |  |  | < 10 | < 100
16 | GGVVCQDWEGVSLCWQGG [SEQ ID NO 746] |  |  |  | < 100
17 | VVCQEWEGVELCWC [SEQ ID NO 661] |  |  | < 10 | < 100
18 | AHSRQEVVCEEWYGVELCWI [SEQ ID NO 649] |  |  | < 10 | < 100
19 | WSKKAEVVCEEWGGVEFCWI [SEQ ID NO 672] |  |  | < 10 | < 100
20 | KPVVVCEEWQGVELCWLEIQ [SEQ ID NO 692] |  |  | < 10 | < 100
21 | DVECVDWGGVELCWH [SEQ ID NO 646] |  |  | < 10 | < 100

Now from value to binder:

Row | IC50 [1] [µM] | IC50 [2] [µM] | IC50 (hu-IL-2Rγc subunit [3]) [µM] | IC50 (hu-IL-2Rγc subunit [4]) [µM] | Binder
22 | < 10 | < 100 |  |  | RTEVECEDWEGVELCWL (modifications not checked) [SEQ ID NO 713]
23 |  |  |  | < 100 | GGRTEVECEDWEGVELCWLGG [SEQ ID NO 741]
24 | < 10 | < 100 |  |  | QLGVECQNWRGVELCWVSEI (modifications not checked) [SEQ ID NO 702]
25 | < 10 | < 100 |  |  | IVCEEYNGVELCWVETSVKP (modifications not checked) [SEQ ID NO 700]
26 | < 10 | < 100 |  |  | HSTVICQDWDGVELCWIEND (modifications not checked) [SEQ ID NO 707]
27 |  |  |  | < 100 | GGTWNMSELECQDWNGVEICWHGG [SEQ ID NO 740]
28 | < 10 | < 100 |  |  | VECEEWGGVELCWLADEVMW (modifications not checked) [SEQ ID NO 706]
29 | < 10 | < 100 |  |  | AVCQDWYGVELCWCMQDILD (modifications not checked) [SEQ ID NO 705]
30 | < 10 | < 100 |  |  | RWAVSCQDWQGIELCWPEWD (modifications not checked) [SEQ ID NO 710]
31 |  |  |  | < 100 | GGVVCQDWEGV[Alb]LCWQGG (not fully specified; printed as G G V V C Q D W E G V Alb L C W Q G G; cysteine pairing not given here; reading uncertain) [SEQ ID NO 744]
32 |  |  |  | < 100 | GGDCSMWEGVELCWGG [SEQ ID NO 737]
33 |  |  |  | < 100 | GGVMCERWQGVELCWLGG [SEQ ID NO 738]
34 |  |  | < 10 |  | IECEEWAGVELCWL [SEQ ID NO 716]
35 |  |  |  | < 100 | GGVVCQDWEGVGLCWQGG [SEQ ID NO 747]
36 | < 10 | < 100 |  |  | TAEVVCQEWDGVELCWIEVL (modifications not checked) [SEQ ID NO 703]
37 |  |  |  | < 100 | GGRTGVECQDWHGVELCWPVWEGG [SEQ ID NO 742]
38 | < 10 | < 100 |  |  | SVEVVCEEWHGVELCWPVFI (modifications not checked) [SEQ ID NO 709]
39 | < 10 | < 100 |  |  | SPSIVCEEWAGVELCWVDYS (modifications not checked) [SEQ ID NO 704]
40 |  |  |  | < 100 | GGVGIECEEWAGVELCWLGG [SEQ ID NO 739]
41 |  |  |  | < 100 | GGVVCQDWEGVXLCWQGG (not fully specified; Abu at residue 12, as printed in the table) [SEQ ID NO 743]
42 |  |  |  | < 100 | GGVVCQDWEGVELCWQGPPA [SEQ ID NO 749]
43 | < 10 | < 100 |  |  | EQQVVCQEWNGVELCWIEAG (modifications not checked) [SEQ ID NO 701]
44 |  |  |  | < 100 | GGVVCQDWEGVELCWQPPA (not fully specified (bridges); cysteine pairing not given here) [SEQ ID NO 748]
